The values that follow come from patent US20090246142A1 (published 2009).

Square brackets hold non-standard residues; d marks the D form. pY = N[C@@H](Cc1ccc(OP(=O)(O)O)cc1)C(=O)O; Ahx = NCCCCCC(=O)O

In test [1] the target is T1, Crk SH2 domain with an N-terminal cysteine (cys-SH2), conjugated to iron oxide nanoparticles (SH2 TSACs) (UniProt P46108 13-118, limits assumed, N-terminal cysteine added by genetic modification and conjugated to aminated nanoparticles through NHS-PEO12-maleimide).
T1 construct: domain: SH2 domain; also called cysteine-SH2; Crk-SH2 TSACs
Description: DLS of nanoparticle assembly in the presence of Abl kinase.

Test [2] addresses T1, Crk SH2 domain with an N-terminal …. Description: DLS of nanoparticle assembly.

T1 sequence (P46108 13-118 limits assumed): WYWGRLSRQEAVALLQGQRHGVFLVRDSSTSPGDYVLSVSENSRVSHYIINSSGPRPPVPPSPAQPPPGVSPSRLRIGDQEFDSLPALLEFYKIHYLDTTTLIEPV

B1: TAMRA-(Ahx)SRVGEEEHVFSFPNKQKSAEC-CONH2 (Abl substrate with the tyrosine replaced by phenylalanine) on nanoparticles (F-Abl TSACs) (peptide)
peptide: {TAMRA-Ahx}-SRVGEEEHVFSFPNKQKSAEC-NH2
modifications: not fully specified (residue 21); printed as TAMRA-(Ahx)SRVGEEEHVFSFPNKQKSAEC-CONH2; also: Cys conjugated to nanoparticle via NHS-PEO12-maleimide
notes: also called phenylalanine-Abl substrate TSACs; phenylalanine substrate TSACs
On to B1, for which the binding result in test [1] was “no binding (tested: 10 µg Fe/ml (12 nM TSAC concentration))”.

B2: TAMRA-(Ahx)EAIpYAAPFAKKKC-CONH2 (non-binding Abl substrate, phosphorylated) on nanoparticles (peptide)
peptide: {TAMRA-Ahx}-EAI[pY]AAPFAKKKC-NH2
modifications: not fully specified (residue 13); also: Cys conjugated to nanoparticle via NHS-PEO12-maleimide
As for B2, the binding result in test [2] is “no binding (tested: 10 µg Fe/ml (12 nM TSAC concentration))”.
